We go through 38 molecules from publication PMC314469, “Protein Interaction Networks by Proteome Peptide Scanning” (PLoS Biology, 2004).

Assay [1] deals with endophilin SH3 (SH3G2_HUMAN), Q99962. The assay can be described thus: SPOT array.
The target in assay [2] is T1, amphyphisin SH3 (AMPH_HUMAN), P49418.
T1 chain: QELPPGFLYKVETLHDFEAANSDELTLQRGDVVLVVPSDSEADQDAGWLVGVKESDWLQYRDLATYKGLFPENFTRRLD
Description: SPOT array.

B1: Q07075 143-156 (peptide)
chain: RLPELKRPSGDQVQ
With B1, the normalised SPOT signal, Boehringer light units (BLU); mean over the file's lines of this peptide in assay [1] is 34.9; in assay [2], 37.2.

B2: Q96SQ5 2-15 (peptide)
chain: AAAVPRRPTQQGTV
As to B2, the normalised SPOT signal, Boehringer light units (BLU); mean over the file's lines of this peptide in assay [1] worked out at 182; in assay [2] it was 38.9.

B3: Q9NRC6 2111-2124 (peptide)
chain: RLKTLRRPRVRDRL
Turning to B3, the normalised SPOT signal, Boehringer light units (BLU); mean over the file's lines of this peptide in assay [1] worked out at 32.1; in assay [2], 35.2.

B4: P31629 1496-1509 (peptide)
chain: RHLSPRRPVSPGKD
As to B4, the normalised SPOT signal, Boehringer light units (BLU); mean over the file's lines of this peptide in assay [1] was 332; in assay [2], 60.1.

B5: Q9NRN8 254-267 (peptide)
chain: RKWYPLRPKKINLD
Turning to B5, the normalised SPOT signal, Boehringer light units (BLU); mean over the file's lines of this peptide is 204 in assay [1] and 177 in assay [2].

B6: Q9NWH6 590-603 (peptide)
chain: RHWRPWRPDKTKKQ
As to B6, the figures for the normalised SPOT signal, Boehringer light units (BLU); mean over the file's lines of this peptide in assay [1] and in assay [2] were 568 and 580, respectively.

B7: Q96M18 45-58 (peptide)
chain: RLIAPRRPWTLSHV
Regarding B7, the normalised SPOT signal, Boehringer light units (BLU); mean over the file's lines of this peptide in assay [1] was 2240; in assay [2], 1130.

B8: O94839 5-18 (peptide)
chain: AVAVPRRPRAGAER
Consider B8, for which the normalised SPOT signal, Boehringer light units (BLU); mean over the file's lines of this peptide in assay [1] was determined as 256; in assay [2], 106.

B9: P58180 122-135 (peptide)
chain: RLIAISRPLRYVTV
As for B9, the normalised SPOT signal, Boehringer light units (BLU); mean over the file's lines of this peptide in assay [1] was found to be 658; in assay [2], 4460.

B10: Q9BQU6 64-78 (peptide)
chain: RLAGPPRPPGHPRE
With B10, the normalised SPOT signal, Boehringer light units (BLU); mean over the file's lines of this peptide was determined as 2700 in assay [1] and 162 in assay [2].

B11: Q9UL53 87-100 (peptide)
chain: RLFSIVRPRRLLYM
Take B11: the figures for the normalised SPOT signal, Boehringer light units (BLU); mean over the file's lines of this peptide in assay [1] and in assay [2] were 702 and 1390, respectively.

B12: Q9UJS3 337-350 (peptide)
chain: RLLPPQRPGKSQRV
Take B12: the values for the normalised SPOT signal, Boehringer light units (BLU); mean over the file's lines of this peptide in assay [1] and in assay [2] were 25000 and 2730, respectively.

B13: Q9BXL7 634-647 (peptide)
chain: RKFSLERPFRPSVT
With B13, the normalised SPOT signal, Boehringer light units (BLU); mean over the file's lines of this peptide in assay [1] amounted to 105; in assay [2] it was 797.

B14: P51659 480-494 (peptide)
chain: AVAIPNRPPDAVLT
With B14, the results for the normalised SPOT signal, Boehringer light units (BLU); mean over the file's lines of this peptide in assay [1] and in assay [2] were 79.1 and 49.8, respectively.

B15: Q92657 54-67 (peptide)
chain: RHQRLHRPGRPVPG
As to B15, the values for the normalised SPOT signal, Boehringer light units (BLU); mean over the file's lines of this peptide in assay [1] and in assay [2] were 64.3 and 11.8, respectively.

B16: Q9BW08 289-303 (peptide)
chain: RKPKPERPPSSSSS
As for B16, the results for the normalised SPOT signal, Boehringer light units (BLU); mean over the file's lines of this peptide in assay [1] and in assay [2] were 7630 and 66.8, respectively.

B17: O00407 179-192 (peptide)
chain: RLNWLGRPSKVLSL
Regarding B17, the results for the normalised SPOT signal, Boehringer light units (BLU); mean over the file's lines of this peptide in assay [1] and in assay [2] were 270 and 213, respectively.

B18: Q13547 49-62 (peptide)
chain: RKMEIYRPHKANAE
Take B18: the figures for the normalised SPOT signal, Boehringer light units (BLU); mean over the file's lines of this peptide in assay [1] and in assay [2] were 78.7 and 90.1, respectively.

B19: Q9H7T3 112-125 (peptide)
chain: RHPRPRRPGGPALR
Take B19: the normalised SPOT signal, Boehringer light units (BLU); mean over the file's lines of this peptide in assay [1] was 266; in assay [2], 92.1.

B20: Q01650 421-434 (peptide)
chain: RKPELERPIKVNLA
For B20, the figures for the normalised SPOT signal, Boehringer light units (BLU); mean over the file's lines of this peptide in assay [1] and in assay [2] were 123 and 103, respectively.

B21: Q9Y2U5 55-68 (peptide)
chain: RILQFPRPVKLEDL
Regarding B21, the normalised SPOT signal, Boehringer light units (BLU); mean over the file's lines of this peptide came to 119 in assay [1] and 108 in assay [2].

B22: Q9NT23 226-239 (peptide)
chain: RLHRLRRPHSSSDA
As to B22, the normalised SPOT signal, Boehringer light units (BLU); mean over the file's lines of this peptide in assay [1] came out at 9.6; in assay [2] it was 12.5.

B23: P41215 45-59 (peptide)
chain: RHPKPLKPPWHLSM
In the case of B23, the normalised SPOT signal, Boehringer light units (BLU); mean over the file's lines of this peptide in assay [1] stood at 3220; in assay [2], 76.6.

B24: Q14296 184-198 (peptide)
chain: RLRLPPKPPPPLQP
Consider B24, for which the normalised SPOT signal, Boehringer light units (BLU); mean over the file's lines of this peptide in assay [1] was determined as 6030; in assay [2] it was 896.

B25: Q9UFC0 277-290 (peptide)
chain: RLAALKRPDDVPLS
Turning to B25, the normalised SPOT signal, Boehringer light units (BLU); mean over the file's lines of this peptide in assay [1] was found to be 49.2; in assay [2], 38.

B26: Q9H1C0 128-141 (peptide)
chain: RLRHLRRPRVARLL
As to B26, the normalised SPOT signal, Boehringer light units (BLU); mean over the file's lines of this peptide stood at 24.3 in assay [1] and 15.2 in assay [2].

B27: O15235 37-51 (peptide)
chain: RLGPPKRPPRKLGP
On to B27, for which the normalised SPOT signal, Boehringer light units (BLU); mean over the file's lines of this peptide worked out at 10500 in assay [1] and 17100 in assay [2].

B28: P58012 147-161 (peptide)
chain: RMKRPFRPPPAHFQ
In the case of B28, the normalised SPOT signal, Boehringer light units (BLU); mean over the file's lines of this peptide in assay [1] came out at 5130; in assay [2] it was 554.

B29: O60292 677-691 (peptide)
chain: RPAKPHKPPGSMGL
B29: the normalised SPOT signal, Boehringer light units (BLU); mean over the file's lines of this peptide was found to be 5260 in assay [1] and 163 in assay [2].

B30: AAH27972 515-529 (peptide)
chain: AVAPPARPPRPPYP
Take B30: the normalised SPOT signal, Boehringer light units (BLU); mean over the file's lines of this peptide was found to be 9580 in assay [1] and 4180 in assay [2].

B31: Q99759 56-69 (peptide)
chain: RIIAFSRPVKYEDV
Regarding B31, the figures for the normalised SPOT signal, Boehringer light units (BLU); mean over the file's lines of this peptide in assay [1] and in assay [2] were 79.6 and 113, respectively.

B32: Q92769 50-63 (peptide)
chain: RKMEIYRPHKATAE
As for B32, the figures for the normalised SPOT signal, Boehringer light units (BLU); mean over the file's lines of this peptide in assay [1] and in assay [2] were 179 and 16.3, respectively.

B33: Q96S08 361-374 (peptide)
chain: RNPVLRRPPILEDY
Turning to B33, the normalised SPOT signal, Boehringer light units (BLU); mean over the file's lines of this peptide was found to be 15.8 in assay [1] and 29.1 in assay [2].

B34: BAC05290 145-159 (peptide)
chain: RPALPGRPPQVAEQ
Consider B34, for which the normalised SPOT signal, Boehringer light units (BLU); mean over the file's lines of this peptide was 501 in assay [1] and 54.8 in assay [2].

B35: O75467 160-174 (peptide)
chain: RLTSPLRPPEGVRL
Take B35: the normalised SPOT signal, Boehringer light units (BLU); mean over the file's lines of this peptide was 1040 in assay [1] and 235 in assay [2].

B36: P55001 106-119 (peptide)
chain: RLYSIHRPSKQSLN
In the case of B36, the normalised SPOT signal, Boehringer light units (BLU); mean over the file's lines of this peptide in assay [1] worked out at 290; in assay [2], 37.2.

B37: O94938 456-469 (peptide)
chain: RMLVPGRPVKDATP
For B37, the normalised SPOT signal, Boehringer light units (BLU); mean over the file's lines of this peptide in assay [1] was 2930; in assay [2], 352.

B38: Q96JB4 119-132 (peptide)
chain: RHLILKRPGFQEHE
Turning to B38, the values for the normalised SPOT signal, Boehringer light units (BLU); mean over the file's lines of this peptide in assay [1] and in assay [2] were 128 and 67.7, respectively.
